From article PMC1184061
Residue numbers refer to the chain shown, from its start.

B1: Zif_3 (CC) (dsDNA)
DNA 1: TCGAGGTCGACGGTATCGCGTGGGCCCTCCACTAGTTCTAGAGCGGCCGCCAC
DNA 2: GTGGCGGCCGCTCTAGAACTAGTGGAGGGCCCACGCGATACCGTCGACCTCGA
B2: Zif_4 (AG) (dsDNA)
DNA 1: B1 DNA 1 with C25A, C26G
DNA 2: B1 DNA 2 with G28C, G29T
B3: Zif_2 (CA) (dsDNA)
DNA 1: B1 DNA 1 with C26A
DNA 2: B1 DNA 2 with G28T
B4: Zif_6 (AC) (dsDNA)
DNA 1: B1 DNA 1 with C25A
DNA 2: B1 DNA 2 with G29T
B5: Zif_5 (AA) (dsDNA)
DNA 1: B1 DNA 1 with C25A, C26A
DNA 2: B1 DNA 2 with G28T, G29T
B6: Zif_1 (CG) (dsDNA)
DNA 1: B1 DNA 1 with C26G
DNA 2: B1 DNA 2 with G28C

target: T1, zif268 DBD R18D (DE) (UniProt P08046 331-420, R349D); experiment: EMSA (Scatchard); 30 mM Tris-HCl pH 8.0, 50 mM NaCl, 0.1 mg/ml BSA, 3 mM DTT, 20 uM ZnSO4, 5 ug/ml poly(dI-dC), 1 h on ice; 10% polyacrylamide gel

| Binder | Ka |
| --- | --- |
| B1 | 4.7 10^6 M-1 |

target: T2, zif268 DBD E21N (RN) (UniProt P08046 331-420, E352N); experiment: as above

| Binder | Ka |
| --- | --- |
| B1 | 33 10^6 M-1 |

target: T3, zif268 DBD R18Q (QE) (UniProt P08046 331-420, R349Q); experiment: as above

| Binder | Ka |
| --- | --- |
| B1 | 6.4 10^6 M-1 |

target: T4, zif268 DBD R18Q/E21N (QN) (UniProt P08046 331-420, R349Q;E352N); experiment: as above

| Binder | Ka |
| --- | --- |
| B2 | 33 10^6 M-1 |

target: T5, zif268 DBD R18D/E21N (DN) (UniProt P08046 331-420, R349D;E352N); experiment: as above

| Binder | Ka |
| --- | --- |
| B2 | 17 10^6 M-1 |

target: T6, zif268 DBD wild type (RE) (UniProt P08046 331-420); experiment: as above

| Binder | Ka |
| --- | --- |
| B1 | 33 10^6 M-1 |

target: T1, zif268 DBD R18D (DE); experiment: competition EMSA (QuMFRA); 30 mM Tris-HCl pH 8.0, 50 mM NaCl, 0.1 mg/ml BSA, 3 mM DTT, 20 uM ZnSO4, 5 ug/ml poly(dI-dC), 1 h on ice; 10% polyacrylamide gel

| Binder | binding signal |
| --- | --- |
| B1 | 1.91 Ka relative to CG |
| B2 | 1.48 Ka relative to CG |
| B3 | 1.16 Ka relative to CG |
| B4 | 3.08 Ka relative to CG |
| B5 | 2.25 Ka relative to CG |

target: T2, zif268 DBD E21N (RN); experiment: as above

| Binder | binding signal |
| --- | --- |
| B1 | 0.41 Ka relative to CG |
| B2 | 1.29 Ka relative to CG |
| B3 | 0.36 Ka relative to CG |
| B4 | 0.94 Ka relative to CG |
| B5 | 0.68 Ka relative to CG |

target: T3, zif268 DBD R18Q (QE); experiment: as above

| Binder | binding signal |
| --- | --- |
| B1 | 2.17 Ka relative to CG |
| B2 | 1.3 Ka relative to CG |
| B3 | 1.5 Ka relative to CG |
| B4 | 1.93 Ka relative to CG |
| B5 | 1.36 Ka relative to CG |

target: T4, zif268 DBD R18Q/E21N (QN); experiment: as above

| Binder | binding signal |
| --- | --- |
| B1 | 0.53 Ka relative to CG |
| B2 | 4.45 Ka relative to CG |
| B3 | 0.49 Ka relative to CG |
| B4 | 2.78 Ka relative to CG |
| B5 | 2.47 Ka relative to CG |

target: T5, zif268 DBD R18D/E21N (DN); experiment: as above

| Binder | binding signal |
| --- | --- |
| B1 | 2.61 Ka relative to CG |
| B2 | 14.5 Ka relative to CG |
| B3 | 1.21 Ka relative to CG |
| B4 | 11.8 Ka relative to CG |
| B5 | 4.02 Ka relative to CG |

target: T6, zif268 DBD wild type (RE); experiment: as above

| Binder | binding signal |
| --- | --- |
| B1 | 0.082 Ka relative to CG |
| B2 | 0.15 Ka relative to CG |
| B3 | 0.27 Ka relative to CG |
| B4 | 0.041 Ka relative to CG |
| B5 | 0.064 Ka relative to CG |

target: T1, zif268 DBD R18D (DE); experiment: EMSA (Scatchard x QuMFRA); derived; 30 mM Tris-HCl pH 8.0, 50 mM NaCl, 0.1 mg/ml BSA, 3 mM DTT, 20 uM ZnSO4, 5 ug/ml poly(dI-dC), 1 h on ice; 10% polyacrylamide gel

| Binder | Ka |
| --- | --- |
| B2 | 3.6 10^6 M-1 |
| B3 | 2.8 10^6 M-1 |
| B4 | 5.5 10^6 M-1 |
| B5 | 3.7 10^6 M-1 |
| B6 | 2.5 10^6 M-1 |

target: T2, zif268 DBD E21N (RN); experiment: as above

| Binder | Ka |
| --- | --- |
| B2 | 105 10^6 M-1 |
| B3 | 30 10^6 M-1 |
| B4 | 77 10^6 M-1 |
| B5 | 56 10^6 M-1 |
| B6 | 81 10^6 M-1 |

target: T3, zif268 DBD R18Q (QE); experiment: as above

| Binder | Ka |
| --- | --- |
| B2 | 3.9 10^6 M-1 |
| B3 | 4.5 10^6 M-1 |
| B4 | 5.7 10^6 M-1 |
| B5 | 4 10^6 M-1 |
| B6 | 3 10^6 M-1 |

target: T4, zif268 DBD R18Q/E21N (QN); experiment: as above

| Binder | Ka |
| --- | --- |
| B1 | 3.9 10^6 M-1 |
| B3 | 3.5 10^6 M-1 |
| B4 | 21 10^6 M-1 |
| B5 | 18 10^6 M-1 |
| B6 | 7.4 10^6 M-1 |

target: T5, zif268 DBD R18D/E21N (DN); experiment: as above

| Binder | Ka |
| --- | --- |
| B1 | 3.1 10^6 M-1 |
| B3 | 1.4 10^6 M-1 |
| B4 | 14 10^6 M-1 |
| B5 | 4.8 10^6 M-1 |
| B6 | 1.2 10^6 M-1 |

target: T6, zif268 DBD wild type (RE); experiment: as above

| Binder | Ka |
| --- | --- |
| B2 | 63 10^6 M-1 |
| B3 | 109 10^6 M-1 |
| B4 | 16 10^6 M-1 |
| B5 | 26 10^6 M-1 |
| B6 | 406 10^6 M-1 |
